The values that follow come from a protein production outcome set (Wang et al. 2014).

The series is described as follows: label from the status in PepcDB records.
“MSLSLPLFYAPDIEQSDRLPDDEAGHILRVLRMQAGDRLRLTDGRGSFFDAVIETADRKSCYVSVCGQESWQKPWRDRITIAIAPTKQSERMEWMLEKLVEIGVDEVVFIESEHSERRRIKAERLERIAISAMKQSLKASFPVIRVNIPIQTVIADTPKAAVRLIAYVDEAVRAEITQGRGYPSDFYHVGQDVLILIGPEGDFSPSEVESALLAGFAPVSLGESRLRTETAGLVACQWIHTLQACCRIGEGHHHHHH”: the protein production entry is listed as “not failed”.

Take “MSLSNVQVNSSQRDEDSFIKGVKDCIPTLLGYLSIGIAAGVIQKTAGLSIAEITLMSLILYAGSGQFIAAGMIATSSSLTAIIITIFFVNLRHILLSAALAPYFRHLSPFRNMLVGSLLTDETFGVAISEAAKKKQISERWMHGLNITAYINWLVANLAGAFLAQWISNPEEFGLGFALPAMFIGILILTMLGRSTIKLDIIVAIIAVVIAVGSSFMLSSSMGVIVATIIASTIGMVVEKWK”: the protein production result is “failed”.

For the sequence “MSLSRRLTMHWFAQAPANIALIKYMGKKDENSNLPDNSSLSYTLSNLLSSVKLEKLPTKKDIWEPLTIPGAPEFNLSVEAQKRFIDHLVRLKEYFGYVGGFLIQSSNNFPHSSGLASSASSFAALTKCASIALSELTQKPLPSIDEQAQLSRLGSGSSCRSFYAPWALWTGDKVSAIDLPYKDLLHQVIVISSQEKEIPSRVAHKLVKTSPFYETRSERAEANLKLLLNAFENKDWTSIYQICWHEFLDMHQLFKTCEKPFSYITDNTLHILSVIEKFWNEKGDGPVVTMDAGPNVHLLYRSDQTDLARQFKSDHLVGNYDVLEGHHHHHH”, the protein production entry is “not failed”.

With “MSLSTWISYTIACILLISPPGPTVTYLITTSMTHGKKTAYEIVWGSFWGGLVCLILSFIGIGAILKTSGTLYAILRLLGIAYLIYLGIKSFLDANKVKDKTEKMVPPEKGEAFKNGFLLIFLNPKNIIFFASFLPQFINHNSPFLLQTTILSLTYLIVGLINDYLYSFFASNIGNVLGKHSEKWIAYIGGVAMILSAIIVVFQNF”, the protein production entry is reported as “failed”.

On to “MSLSVMFDPQSYPYPSRRNVVYAKNGMVATSQPLAAQAGLDILKAGGNAIDAAIATATALTVLEPTSNGIGSDAFALVWTKGKLHGLNGSGRAPMSLTMEAVKAKGYEQELPPYGVIPVTVPGAPGAWAELAKMYGNLPLAASLAPAIRYAEEGYPVTPTLAKYWKAAYDRFKTEWTDDVYQPWFDTFAPKGRAPRVGEVWRSQGHADTLRSIAESNGESFYRGELADQIHAFFDKHGGYLTKEDLACYRPEWVEPISIDYRGYRVWEIPPNGQGLVALEALNIVKGFEFYHKDTVDTYHKQIEAMKLAFVDGMKYVTEPSDMSVSVEQLLSDEYATERRKEIGEQALTPEPGTPPRGGTVYLATADGDGNMVSFIQSNYMGFGSGVVVPGTGIAMQNRGHNFSLDPNHDNALKPGKRTYHTIIPGFLTKNDQPIGPFGVMGGFMQPQGHMQVMMNTIDFGLNPQAALDAPRWQWTNGKQVQVEPTFPVDIAQALVRRGHKIQVVLDEGAFGRGQIIWRDPTTGVLAGGTEPRTDGQVAAWEGHHHHHH”, for which the protein production entry was “not failed”.

On to “MSLTEPRIVATYHIASDAERIEQRALALAIEQSVECPLEAIGDPAIVANIVGRVEDVAELQPGRYAVRIGLAAATAPAEPGQLLNMLFGNSSIQPDIALADVELPAHYLTAFGGPRVGLAGIRTLTGAQSRALTASALKPQGLSPAALASIAHQLALGGVDLIKDDHGLADQAFSPFAERAAAVGKAVREANAARGGRTLYAPNISGTLDDMRRQLGVIRDEGIGAVLVAPMIVGVSNFHAIVKEAAGLVVVAHPAMAGAAKIAAPLLLGRLFRLFGADATVFPNYGGRFAYSTASCLALAQAARDPFGKLNACIPTPAGGIMLQRVNELLRFYGQDVMLLIGGSLLASRERLTEQASRFVNKVADYGQREGHHHHHH”, for which the protein production entry is “not failed”.

Take “MSLTEYVHGYSEREALRLSEQAETLEKLLHHDTVYPPGAKVLEAGCGIGAQTVILAKNNPDAEITSIDISPESLEKARENTEKNGIKNVKFLQANIFSLPFEDSSFDHIFVCFVLEHLQSPEEALKSLKKVLKPGGTITVIEGDHGSCYFHPEGKKAIEAWNCLIRVQAYMKGNSLVGRQIYPLLQESGFEKIRVEPRMVYIDSSKPELVDGFILKTIIPMVEGVKEQSLKMQIIKEEEWEKGIEELHKTAEHGGTFCYTFFKGWGTKEGHHHHHH”: the protein production entry is listed as “not failed”.

For the sequence “MSLTIKLIAIDIDGTLLNEKNELAQETIDAVQAAKAQGIKVVLCTGRPLTGVQPYLDAMGISGDDQYAITFNGSVAQTISGKVLTNHSLTYEDYIDLEAWARKVRAHFQIETPDYIYTANKDISAYTIAESYLVRMLIRYREVSETPRDLTISKAMFVDYPQVIEQVKANMPQDFKDRFSVVQSAPYFIEVMNRRASKGGTLSELVDQLGLTADDVMTLGDQGNDLTMIKYAGLGVAMGNAIDEVKEAAQAVTLTNAENGVAAAIRKYALNEGHHHHHH”, the protein production result is “not failed”.

As for “MSLTMVSEVQPVSPASLDAPLENAVEIIETVISSLHQGDAPLVGQTDSGKIWMFRYGSAEVFVQLSGHTEEDFLTIWSPVLPLPVADELALYRKLLTLNWLTTFEAHFAIAEEQVQVVASRTLGGITAGEISRLITIVATLADDYDDALRAEFKGEGHHHHHH”, the protein production result was “not failed”.

As for “MSLTNHHPSSTGPQHPYRAGWIHFTNVAPILDSLELPPGVTAITGVPTQMNAALLSGEVDIANVSAVEFIRHADTLAALPDFSVAVLGPVYSVNLFHTCPLPELRRVALTSQSAMSVALLEVLLRQKGLSPVLERAEGTAESLLAAGYDGVLRIGDDALREWYGVVGPLTPERTMTSLPHTGRGITVTDLAQEWFDLTGHPFTFAVWAYRKDNPPPAALLQAMREARRRGIGHLAEVSQRHAEKLGLPERVVQHYLWNFRYHLEAPDRLGLREFADLAVPGHAELTFGAREEAEGHHHHHH”, the protein production result is recorded as “not failed”.

As for “MSLTRDAASITPARVRAHVFRYPVSTPVKTSFGTMHDRPAVLVEVEDSDGAVGWGEVWCNFPACGAEHRARLVETVLAPLLTARAFADPAQAFAHLEARTAVLAIQTGEPGPLAQAIAGLDIALCDLAARRAGQPLWAWLGGSGDRIGVYASGINPENPEDVVARKAAEGYRAFKLKVGFDDARDVRNALHVRELLGAATPLMADANQGWDLPRARQMAQRLGPAQLDWLEEPLRADRPAAEWAELAQAAPMPLAGGENIAGVAAFETALAARSLRVMQPDLAKWGGFSGCLPVARAVVAAGLRYCPHYLGAGIGLQASAHLLAAVPGLASPGLLEVDANDNPLRSLLSPALATLHEGRITLGGAPGLGVTPDLAALRAACAAREGHHHHHH”, the protein production result is listed as “not failed”.

As for “MSLTTPTMIAAVVEEANGPFVLRKLARPQPAPGQVLVQIEASGTNPLDAKIRAGEAPHAQQPLPAILGMDLAGTVVAVGPEVDSFRVGDAVFGLTGGVGGLQGTHAQFAAVDARLLASKPAALTMRQASVLPLVFITAWEGLVDRAQVQDGQTVLIQGGGGGVGHVAIQIALARGARVFATARGSDLEYVRDLGATPIDASREPEDYAAEHTAGQGFDLVYDTLGGPVLDASFSAVKRFGHVVSCLGWGTHKLAPLSFKQATYSGVFTLHTLLANEGLAHFGEMLREADALVQTGKLAPRLDPRTFSIAEIGSAYDAVLGRNDVPRQRGKIAITVEGHHHHHH”, the protein production entry is “not failed”.

Consider “MSLTTVGIRGTFFDFVDDPWKHIGNEQAAARFHQDGLMVVTDGVIKAFGPYEKIAAAHPGVEITHIKDRIIVPGFIDGHIHLPQTRVLGAYGEQLLPWLQKSIYPEEIKYKDRNYAREGVKRFLDALLAAGTTTCQAFTSSSPVATEELFEEASRRNMRVIAGLTGIDRNAPAEFIDTPENFYRDSKRLIAQYHDKGRNLYAITPRFAFGASPELLKACQRLKHEHPDCWVNTHISENPAECSGVLVEHPDCQDYLGVYEKFDLVGPKFSGGHGVYLSNNEFRRMSKKGAAVVFCPCSNLFLGSGLFRLGRATDPEHRVKMSFGTDVGGGNRFSMISVLDDAYKVGMCNNTLLDGSIDPSRKDLAEAERNKLSPYRGFWSVTLGGAEGLYIDDKLGNFEPGKEADFVALDPNGGQLAQPWHQSLIADGAGPRTVDEAASMLFAVMMVGDDRCVDETWVMGKRLYKKSEGHHHHHH”, for which the protein production result was “not failed”.

As for “MSMKGKETMSNEKIVVGKFGATYGIRGWLKVFSYTDNAESIFDYSPWYINQKGKWVEYKVESWKRHNKGMVAKLEGMDVREDAHLMTNFEIAIDPAVLPELSEDEFYWRELFGMHVVTTKGYDLGVVTDMLETGSNDVLVVKANLKDAFGQKERLIPFLEEQVIIKVDREAQRIEVDWDPGFLEHHHHHH”, the protein production entry is on record as “not failed”.

Consider “MSMKILKASVFVIIVFFLMPLPVVAAKKGIYCGELKGSHYGPFDYMDRFNHSEQLKIVEDFHFTSDVEDLIRGSTSSTPAKDLNYTLHAWPNHHRALVSLFKYSIKEKSTRIKGLKYPVECYFDRAIRMNMKDVQVRSIYSAFLSHRGRNKEALEQLEVAANLEPDNATILYNLGLLYFKQKNYEKASHYAEKAYALDYPLPGLRNKLIQAGKWRGSASGRSGK”, for which the protein production entry is listed as “failed”.

On to “MSMTKSEVCVIIAAKNAARTIAVAIASALREPEAAEVVVVDDGSTDNTAEVARSADDGSGRLKVMRLDVNRGPSFARNAAIAGSKAPFISILDADDFFLEGRFRNLFAAADWDFAADNIMLIRDDATNDATKIVAPDFAADPEFLDFERFVEGNISRRRVQRGELGFLKPVISRAFLDRHRLRYDESLRLGEDYELYARAVAHGARFKVIRSCGYGAIVRADSLSGRHKTQDLKRLADADLALLAIDSLPEGSKAVLRRHERHVRDKYRLRNFLDVKAERGLASAAAYAFASQSNLVPIVQGVASDKLEALFRRVGLVSRQKRVPPLRFLMAGTSAGKER”, for which the protein production result is listed as “failed”.

Take “MSNALKSIDFRTNKSKDAVIVVELASPAAIVDVKRVQEGLSIDLMNTSVKDEQLYLLDVKDFATVVESVEVFRDTSTTRLVAYIDEEYTHDYRLTGRYLEITVSKLKPNEKVPDKSILEKEGKLISINFQDIPVRNVLQLIADYNQFNLVVSDSVEGNLTLRLDGVPWQQVLDIILQVKGLDKRVDGNVILVAPTDELDLREKQQLEKQKLTEEMGELSSEIIKVNFAKASDIAEMINGEGNISMLSERGSMTIDERTNSLLIRELPENIAVIREIIESLDIPVKQVQIEARIVTISEGNMDELGIRWGFTSINGNNTVGGSIENNLATIGLYEGGGDGEGEEGGVGIDDFLNVNLAATNPNAASIAFQVAKLGSDTLLDLELSALQQESKAEIISSPRLITTNKKPAYIEQGTEIPYLESSSSGATSVTFKKAVLSLKVTPQITPDNRLVLDLSVTQDRPGKVVKTGTGEAMAIDTQRIGTQVLVNNGETVVLGGIFQHSITNSVDKVPLLGDLPLLGALFRRSYENVGKSELLIFVTPKVVIQLEHHHHHH”: the protein production result is on record as “not failed”.

Regarding “MSNANPDTTAAEAHRRRTFAVIAHPDAGKSTLTEALALHAHIISEAGATHGKAGRKATVSDWMEMEKDRGISIASSALQFEYAPEGHAGEPFMINLVDTPGHADFSEDTYRVLMAVDAAVMLIDAAKGLEPQTLQLFRVCKARGLPIITVINKWDRVGRTPLELVDEIVKEIELQPTPLFWPVGEAGDFRGLARINNDGEVEEYIHFTRTAGGSTIAPEDFYTPEEAIEREGDVWENATEEAELLAADGAVHDQELFLNCTTSPLIFASAMLNFGVHQILDTLCQLAPSPAGRDADPKALEAATSAMDDHRDTTDDFSGVVFKVQAGMDKNHRDTLAFMRVVSGEFDRGMQVTHSQSGRSFSTKYALTVFGRTRSTVETAFPGDIVGLVNAGALAPGDTIFEGRKIQYPPMPKFAPEHFRILRAKSLGKYKQFRKALEQLDSEGVVQILKNDLRGDANPVMAAVGPMQFEVMQARMEVEYNVETVADPIPYSVARRTTAETAPELAKQRGVEIFTRTDGELIALFSDKWRLSFIEKEHPDFVLESLVAE”, the protein production entry is recorded as “failed”.
